# B1: 1630/1631 (antibody, human IgG4 S228P, kappa, V domains shown)
# VH: EVQLLESGGGLVQPGGSLRLSCAASGFTFGYSYMSWVRQAPGKGLEWVSSIGSGSSYTYYADSVKGRFTISRDNSKNTLYLQMNSLRAEDTAVYYCARVYSSPGIDYWGQGTLVTVSS
# VL: DIQMTQSPSSLSASVGDRVTITCRASQSISSYLNWYQQKPGKAPKLLIYAASSLQSGVPSRFSGSGSGTDFTLTISSLQPEDFATYYCQQYYTWVPFTFGQGTKLEIKR
# notes: the format in each assay is not restated
# Columns and labels:
# [1] = target: T1, cynomolgus CD137 on transfected CHO cells (CHO-cyCD137) (cynomolgus (Macaca fascicularis); human); assay: flow cytometry; EC50 on CHO-cyCD137 against EC50 on CHO-huCD137
# T1 construct: extracellular domain;domain: transmembrane and intracellular part; also called cyno CD137
# T1 sequence (P25942 other isoform, or with tags, fused parts or gaps): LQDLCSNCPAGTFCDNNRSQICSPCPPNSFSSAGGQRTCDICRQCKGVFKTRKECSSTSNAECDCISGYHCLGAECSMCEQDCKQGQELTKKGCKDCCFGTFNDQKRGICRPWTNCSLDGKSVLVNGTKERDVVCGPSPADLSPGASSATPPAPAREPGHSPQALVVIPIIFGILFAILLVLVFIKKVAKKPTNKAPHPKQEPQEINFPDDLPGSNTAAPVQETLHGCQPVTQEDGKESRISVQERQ
# Protocol: (§1) Binding and EC50 was determined using flow cytometric of CHO cells transfected with human CD137, cynomolgus CD137 or empty vector. The extracellular part of human or cynomolgus CD137 was fused to the transmembrane and intracellular part of human CD40 and cloned into pcDNA3.1. The vector was subsequently stably transfected into CHO cells. […] CD137-transfected and empty vector-transfected cells were incubated with CD137 antibodies for at least 1 h at 4° C. to saturate the binding. In order to minimize antibody internalization, 0.05% sodium azide was used in the incubation buffer and all work was performed on ice. The CD137 antibodies were detected using PE-conjugated anti-hIgG antibody (109-115-098, Jackson Immunoresearch laboratories), incubated for 30 min at 4° C. Directly after staining the cells were fixed with a paraformaldehyde solution (10× concentrate BD CellFIX, BD biosciences #340181). Cells were analyzed by flow cytometry using FACSVerse (BD Biosciences). The median fluorescence intensity (MFI) for each sample was determined and the dose response data was analysed using Graph Pad Prism.
# (§2) MFI data was normalized for each antibody, where 0% is defined as the lowest value and 100% is the highest value in the dose titration for each antibody.
# [2] = target: T2, 1553: Human CD137 with mouse domains 3A, 3B and 4A (aa 87-133) (human; mouse, UniProt P20334 86-133); assay: flow cytometry on transfected 293-F cells, human/mouse CD137 chimera
# T2 construct: domain: domains 3A, 3B and 4A (aa 87-133); Human/mouse chimera transiently expressed on FreeStyle 293-F cells
# T2 sequence (P20334 other isoform, or with tags, fused parts or gaps limits assumed): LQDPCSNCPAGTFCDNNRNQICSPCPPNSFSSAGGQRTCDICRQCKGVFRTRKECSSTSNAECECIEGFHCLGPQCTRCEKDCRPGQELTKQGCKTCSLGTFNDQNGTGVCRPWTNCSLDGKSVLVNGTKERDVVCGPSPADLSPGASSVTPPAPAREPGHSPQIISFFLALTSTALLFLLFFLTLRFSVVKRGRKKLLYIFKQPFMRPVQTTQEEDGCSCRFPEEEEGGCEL
# Protocol: (§3) The ability of each antibody to bind to a panel of human/mouse CD137 chimeras expressed on the surface of transfected cells was analyzed by flow cytometry.
# (§4) The chimeras were designed by exchanging domains or modules of the human CD137 with the corresponding mouse domain. Genes of CD137 human/mouse chimeras were synthesized (GenScript) and constructs cloned into pcDNA3.1 vector (Invitrogen) and transiently transfected into FreeStyle 293-F cells (Invitrogen). The transfected cells were incubated with CD137 antibodies and control antibodies, followed by incubation with anti-human IgG-PE (Jackson Immunoresearch) for detection and analyzed with FACS Verse (BD Biosciences). Binding to the different chimeric constructs was calculated as relative MFI compared to the binding of the isotype control, followed by normalization to the full-length human CD137 construct to minimize the effect of affinity differences between individual antibodies.
# [3] = target: T3, 1551: Human CD137 with mouse domains 2A, 2B and 3A (aa 47-96) (human; mouse, UniProt P20334 46-95); assay: as above
# T3 construct: domain: domains 2A, 2B and 3A (aa 47-96); Human/mouse chimera transiently expressed on FreeStyle 293-F cells
# T3 sequence (P20334 other isoform, or with tags, fused parts or gaps limits assumed): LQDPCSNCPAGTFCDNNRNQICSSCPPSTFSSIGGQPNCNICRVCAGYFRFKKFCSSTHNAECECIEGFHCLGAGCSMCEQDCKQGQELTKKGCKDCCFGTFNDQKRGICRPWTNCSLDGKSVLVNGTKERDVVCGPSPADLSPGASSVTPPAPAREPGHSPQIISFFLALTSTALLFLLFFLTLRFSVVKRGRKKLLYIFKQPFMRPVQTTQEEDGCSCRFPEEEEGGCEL
# Protocol: as §3, §4
# [4] = target: T4, Human CD137 (R&D systems) (human, UniProt Q07011 24-186, limits assumed); assay: SPR (Biacore), human CD137 immobilised, bivalent antibody as analyte, 1:1 Langmuir model
# T4 construct: also called CD137 coated on the chip surface
# T4 sequence (Q07011 24-186 limits assumed): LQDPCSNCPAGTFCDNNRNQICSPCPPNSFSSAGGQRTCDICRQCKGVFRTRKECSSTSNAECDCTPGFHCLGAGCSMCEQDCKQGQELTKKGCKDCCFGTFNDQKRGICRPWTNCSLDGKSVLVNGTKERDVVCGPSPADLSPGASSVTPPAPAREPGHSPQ
# Protocol: Human CD137 (R&D systems) was immobilized to the Biacore™ sensor chip, CMS, using conventional amine coupling. […] The association was followed for 5 minutes and the dissociation for 15 minutes. Regeneration was performed twice using 10 mM Glycine pH 1.7 for 30 seconds. The kinetic parameters and the affinity constants were calculated using 1:1 Langmuir model.
# The affinities of the antibodies were in the nanomolar to sub-nanomolar range (Table 3) measured using bivalent antibodies flowed over CD137 coated on the chip surface.
# [5] = target: T5, human CD137 on transfected CHO cells (CHO-huCD137) (human); assay: flow cytometry on CHO-huCD137 cells; 95% confidence interval of the EC50
# T5 construct: domain: transmembrane and intracellular part
# T5 sequence (P25942 other isoform, or with tags, fused parts or gaps limits assumed): as the sequence (P25942 other isoform, or with tags, fused parts or gaps) above, with L4P, S19N, K50R, I66T, S67P, Y69F, E75G, A149V counted along it
# Protocol: as §1, §2
# [6] = target: T6, recombinant human CD137-Fc (R&D #838-4B) (human, UniProt Q07011 24-186); assay: ELISA, coated CD137 (R&D #838-4B)
# T6 construct: Bought protein coated on ELISA plates; also called CD137 (R&D #838-4B); not shown: Fc part of the commercial fusion protein; not described
# T6 sequence (Q07011 24-186 limits assumed): as the sequence (Q07011 24-186 limits assumed) above
# [7] = target: T6, recombinant human CD137-Fc (R&D #838-4B); assay: ELISA, coated human CD137-Fc; mean
# [8] = target: human CD137 (Acro Biosystems #41B-H5227) (human, UniProt Q07011 24-186); assay: Octet (BLI), antibody amine-coupled to ARG2 biosensor, soluble CD137 as analyte, 1:1 model
# human CD137 (Acro Biosystems #41B-H5227), sequence (Q07011 24-186 limits assumed): as above
# Protocol: (§5) Materials and method CD137 affinity was determined using the Octet Red 96 platform (ForteBio). […] 7 2-fold serial dilutions of CD137 (Acro Biosystems #41B-H5227 and #41B-C52H4) from 100 nM was prepared in 1× kinetic buffer (ForteBio #18-1092). Association was measured for 180 s followed by dissociation for 180 s in 1× kinetic buffer. 10 mM Glycine pH 2.2 was used for regeneration.
# (§6) Data generated was referenced by reference well subtraction (1188), the baseline was aligned with the y-axis, inter-step correlation by alignment against association was performed and the data was smoothed by a Savitzky-Golay filtering in the data analysis software (v.9.0.0.14). The processed data was fitted using a 1:1 Langmuir binding model with X² as a measurement of fitting accuracy.
# [9] = target: cynomolgus CD137 (Acro Biosystems #41B-C52H4) (cynomolgus, UniProt A9YYE7 24-186); assay: as above
# cynomolgus CD137 (Acro Biosystems #41B-C52H4), sequence (A9YYE7 entry or part of it): as the sequence (Q07011 24-186 limits assumed) above, with P4L, N19S, R50K, T66I, P67S, F69Y, G75E, V149A counted along it
# Protocol: as §5, §6
# [10] = target: T1, cynomolgus CD137 on transfected CHO …; assay: flow cytometry on CHO-cyCD137 cells; 95% confidence interval of the EC50
# Protocol: as §1, §2
binder,measurement,setting,value
B1,"Ratio, cyno:human",[1],0.63
same,"MFI antibody/isotype control, normalized to full-length human CD137",[2],0.91
same,"MFI antibody/isotype control, normalized to full-length human CD137",[3],0.1
same,Kd,[4],0.641 nM
same,koff,[4],0.00118 s⁻¹
same,kon,[4],1.85e+06 M⁻¹ s⁻¹
same,EC50,[5],0.17 to 0.26 µg/mL
same,EC50,[6],0.4 nM
same,EC50,[7],0.27 nM
same,Kd,[8],14 nM
same,koff,[8],0.0023 s⁻¹
same,kon,[8],160000 M⁻¹ s⁻¹
same,Kd,[9],18 nM
same,koff,[9],0.0025 s⁻¹
same,kon,[9],140000 M⁻¹ s⁻¹
same,EC50,[10],0.55 to 0.87 nM

# From patent US20190352411A1 (ALLIGATOR BIOSCIENCE, published 2019)
